Measurements published in the Human Domainome abundance scans (Beltran et al. 2025).
± gives the uncertainty stated by the source.

B1: Cell division cycle and apoptosis regulator protein 1, residues 625 to 674; numbered along this chain, Q8IX12 (parent)
chain: ISTPTHWSKLDPKTMKVNDLRKELESRALSSKGLKSQLIARLTKQLKVEE

Variants of: B1
Experiment: abundance fitness (aPCA) (normalised: wild type 0, dead -1); higher = more abundant; growth selection in yeast, the domain comes from the species named
Settings: Homo sapiens

Abundance fitness: each site, then its substitutions
K35: Y -0.333 ± 0.045 | E -0.074 ± 0.048 | F -0.419 ± 0.08 | W -0.482 ± 0.032 | S -0.288 ± 0.044 | M -0.244 ± 0.048 | N -0.212 ± 0.054 | A -0.341 ± 0.051 | D -0.212 ± 0.054 | V -0.264 ± 0.038 | G -0.356 ± 0.031 | C -0.355 ± 0.058 | Q -0.299 ± 0.08 | I -0.249 ± 0.055 | L -0.243 ± 0.043 | T -0.276 ± 0.061
S30: P 0.036 ± 0.048 | I -0.185 ± 0.071 | H -0.152 ± 0.064 | T -0.034 ± 0.033 | L -0.184 ± 0.029 | K 0.037 ± 0.047 | A -0.05 ± 0.045 | N 0.126 ± 0.055 | W -0.283 ± 0.043 | D 0.016 ± 0.059 | E -0.071 ± 0.043 | G -0.026 ± 0.037 | M -0.067 ± 0.035 | V -0.047 ± 0.034 | Y -0.141 ± 0.048 | C 0.069 ± 0.048 | Q -0.148 ± 0.045
A28: I 0.074 ± 0.064 | P -0.782 ± 0.064 | Q 0.151 ± 0.042 | G 0.145 ± 0.033 | E 0.038 ± 0.055 | Y 0.181 ± 0.069 | T 0.085 ± 0.037 | D 0.129 ± 0.064 | S 0.138 ± 0.031 | C 0.054 ± 0.057 | W -0.053 ± 0.041 | F 0.003 ± 0.052 | H -0.108 ± 0.076 | V -0.016 ± 0.033 | L 0.04 ± 0.042 | R 0.151 ± 0.029 | M 0.072 ± 0.036
K32: R -0.105 ± 0.034 | L -0.071 ± 0.036 | G -0.131 ± 0.045 | S -0.142 ± 0.042 | Y -0.138 ± 0.045 | V -0.233 ± 0.032 | F -0.213 ± 0.047 | T -0.066 ± 0.049 | W -0.089 ± 0.049 | H -0.05 ± 0.062 | D -0.092 ± 0.043 | E -0.104 ± 0.032 | A -0.153 ± 0.043 | C -0.18 ± 0.036 | N -0.143 ± 0.038
G33: A -0.891 ± 0.059 | S -0.934 ± 0.063 | V -0.919 ± 0.055 | D -0.62 ± 0.079 | T -1.03 ± 0.055 | E -0.857 ± 0.058 | H -0.932 ± 0.14 | K -0.939 ± 0.071 | M -1.03 ± 0.13 | Q -0.819 ± 0.05 | L -1.04 ± 0.052 | Y -1.03 ± 0.17 | I -1.04 ± 0.25 | P -1.02 ± 0.077 | F -0.98 ± 0.14 | W -1.07 ± 0.073 | C -1 ± 0.073 | N -1.2 ± 0.3 | R -1.04 ± 0.046
